We go through two molecules from patent US20200362031A1 (BIO TECHNE, published 2020).

The target in assay [1] is VISTA(1-195)-COMP-His (human). Put plainly: SPR (Biacore T200); VISTA-COMP against monomeric VISTA, VSIG3-Fc analyte. The protocol:
(§1) VISTA or VISTA-COMP (each prepared as described in Example 4) was covalently immobilized to the surface of a CM5 chip (GE Healthcare, US) using an anti-poly His antibody. Dilutions of VSIG3 Fc-fusion were then flowed over the surface at concentration ranging between 0.2 nM and 20 μM and the double reference subtracted data fit to a 1:1 Langmuir binding model with Biacore T200 Evaluation Software version 3.1
This increase is largely due to an […].

The target of assay [2] is T1, Recombinant human VISTA Fc Chimera (human).
T1 construct: also called rhVISTA; VISTA/IgG Fc fusion protein
Put plainly: functional ELISA; rhVISTA coated 2 µg/mL, biotinylated rhVSIG3, streptavidin-HRP. The protocol: Recombinant human VSIG3 Fc Chimera (“rhVSIG3”—encoded by SEQ ID NO:3; see Table 1) specifically binds to a recombinant human VISTA Fc Chimera (“rhVISTA”—encoded by SEQ ID NO:6; see Table 1) on a functional ELISA binding assay. rhVISTA was coated on the wells of a ELISA microtiter plate at 2 μg/ml in a 100 μL volume. Following blocking of the wells with 1% BSA, varying amounts of rhVSIG3 labeled with biotin was added. Biotin label associated with the plate due to the rhVSIG3-rhVISTA interaction was detected with streptavidin-HRP. […] The non-specific binding is subtracted and in all cases was less than 5% of the total signal.
On the technique in general: An ELISA detects its analyte on a solid surface through an enzyme-linked reagent.

Assay [3] concerns the target monomeric VISTA (human). Description: SPR (Biacore): monomeric VISTA captured by anti-poly-His antibody on a CM5 chip, VSIG3-Fc analyte 0.247 to 20 µM, 1:1 fit. The protocol:
(§2) FIG. 9A-FIG. 9D show schematics and quantification of the kinetics and affinity of the VISTA-VSIG3 interaction by surface plasmon resonance (Biacore) using monomeric VISTA and multimeric VISTA-COMP. FIG. 9A and FIG. 9C show schematics of the Biacore experiment, where VISTA (FIG. 9A) or VISTA-COMP (FIG. 9C) is captured on the surface of a CM5 chip (GE Healthcare) using an anti-poly His antibody. The analyte, VSIG3-Fc, is flowed over the captured VISTA at concentration ranging between 0.2 nM and 20 μM. FIG. 9B and FIG. 9D show resulting sensorgrams and kinetic fits using a 1:1 model for the monomeric VISTA-VSIG3-Fc interaction (FIG. 9B) and the multimeric VISTA-COMP-VSIG3-Fc interaction (FIG. 9D). For captured monomeric VISTA, the VSIG3-Fc analyte was tested in the range of 0.247 μM to 20 μM. For captured multimeric VISTA-COMP, the VSIG3-Fc analyte was tested in the range of 0.2 nM to 500 nM.
as §1
A general note: SPR reads the build-up and loss of mass on a sensor chip optically.

Assay [4] concerns the target VISTA(1-195)-COMP-His (human). Put plainly: SPR (Biacore T200); VISTA-COMP captured by anti-poly His antibody on CM5 chip, VSIG3-Fc analyte, 1:1 Langmuir fit. The protocol:
as §1

In assay [5] the target is monomeric VISTA (human). Description: SPR (Biacore T200); monomeric VISTA captured by anti-poly His antibody on CM5 chip, VSIG3-Fc analyte, 1:1 Langmuir fit. As to the method:
as §1

The target of assay [6] is VISTA(1-195)-COMP-His (human). Description: SPR (Biacore): VISTA-COMP captured by anti-poly-His antibody on a CM5 chip, VSIG3-Fc analyte 0.2 to 500 nM, 1:1 fit. The protocol:
as §2, §1

In assay [7] the target is T1, Recombinant human VISTA Fc Chimera. Put plainly: AVEXIS screen.

VISTA(1-195)-COMP-His (human), sequence (chain, as listed by the source): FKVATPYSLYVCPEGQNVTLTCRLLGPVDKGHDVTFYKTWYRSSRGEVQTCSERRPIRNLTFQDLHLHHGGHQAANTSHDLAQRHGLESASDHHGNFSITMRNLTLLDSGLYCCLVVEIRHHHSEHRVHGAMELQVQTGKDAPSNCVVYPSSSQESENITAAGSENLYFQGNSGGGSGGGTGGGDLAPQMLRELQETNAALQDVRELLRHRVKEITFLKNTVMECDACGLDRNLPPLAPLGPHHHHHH
monomeric VISTA (human), sequence (Q9H7M9 33-194): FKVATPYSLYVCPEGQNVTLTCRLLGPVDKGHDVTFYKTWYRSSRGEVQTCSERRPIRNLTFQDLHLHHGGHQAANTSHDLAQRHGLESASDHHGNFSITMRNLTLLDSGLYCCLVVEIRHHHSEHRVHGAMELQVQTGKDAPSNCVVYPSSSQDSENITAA

B1: Recombinant human VSIG3 Fc Chimera (Fc fusion)
chain: LEVSESPGSIQVARGQTAVLPCTFTTSAALINLNVIWMVTPLSNANQPEQVILYQGGQMFDGAPRFHGRVGFTGTMPATNVSIFINNTQLSDTGTYQCLVNNLPDIGGRNIGVTGLTVLVPPSAPHCQIQGSQDIGSDVILLCSSEEGIPRPTYLWEKLDNTLKLPPTATQDQVQGTVTIRNISALSSGLYQCVASNAIGTSTCLLDLQVISPQPRNIGLIAGIEGRMDPKSCDKTHTCPPCPAPEAEGAPSVFLFPPKPKDTLMISRTPEVTCVVVDVSHEDPEVKFNWYVDGVEVHNAKTKPREEQYNSTYRVVSVLTVLHQDWLNGKEYKCKVSNKALPAPIEKTISKAKGQPREPQVYTLPPSRDELTKNQVSLTCLVKGFYPSDIAVEWESNGQPENNYKATPPVLDSDGSFFLYSKLTVDKSRWQQGNVFSCSVMHEALHNHYTQKSLSLSPGK
notes: also called rhVSIG3; rhVSIG-3
For B1, the “fold higher affinity than with monomeric VISTA” value with VISTA(1-195)-COMP-His [1] is about 150 fold. Also, the EC50 – broadly, the midpoint of the concentration-response curve – in assay [2] was about 0.25 µg/mL. Further, the dissociation constant Kd – broadly, a measure of binding affinity in units of concentration – with monomeric VISTA [3] was 2.52 µM; in the assay with VISTA(1-195)-COMP-His [4] it was about 0.017 µM; in the assay with monomeric VISTA [5], about 2.5 µM; with VISTA(1-195)-COMP-His [6], 0.017 µM.

B2: VSIG3(1-245)-COMP-AlkPhos-Flag/His (other)
chain: LEVSESPGSIQVARGQPAVLPCTFTTSAALINLNVIWMVTPLSNANQPEQVILYQGGQMFDGAPRFHGRVGFTGTMPATNVSIFINNTQLSDTGTYQCLVNNLPDIGGRNIGVTGLTVLVPPSAPHCQIQGSQDIGSDVILLCSSEEGIPRPTYLWEKLDNTLKLPPTATQDQVQGTVTIRNISALSSGLYQCVASNAIGTSTCLLDLQVISPQPRNIGLIAGSENLYFQGNSGGGSGGGTGGGDLAPQMLRELQETNAALQDVRELLRHRVKEITFLKNTVMECDACGLDRNLPPLAPLGPIIPVEEENPDFWNREAAEALGAAKKLQPAQTAAKNLIIFLGDGMGVSTVTAARILKGQKKDKLGPEIPLAMDRFPYVALSKTYNVDKHVPDSGATATAYLCGVKGNFQTIGLSAAARFNQCNTTRGNEVISVMNRAKKAGKSVGVVTTTRVQHASPAGTYAHTVNRNWYSDADVPASARQEGCQDIATQLISNMDIDVILGGGRKYMFRMGTPDPEYPDDYSQGGTRLDGKNLVQEWLAKRQGARYVWNRTELMQASLDPSVTHLMGLFEPGDMKYEIHRDSTLDPSLMEMTEAALRLLSRNPRGFFLFVEGGRIDHGHHESRAYRALTETIMFDDAIERAGQLTSEEDTLSLVTADHSHVFSFGGYPLRGSSIFGLAPGKARDRKAYTVLLYGNGPGYVLKDGARPDVTESESGSPEYRQQSAVPLDEETHAGEDVAVFARGPQAHLVHGVQEQTFIAHVMAFAACLEPYTACDLAPPAGTTDDYKDDDDKHHHHHH
notes: also called penta-VSIG3
For B2, in assay [7], the binding result is on record as “no binding”.
